Where a chain is given by its changes, count along the chain named. Names and notes keep the numbering of the source. Values belong to the binder of their own block, whether it stands above or below them.
B1: STIM1 CC1_([TM-distal])-CC2 E318Q/E319Q/E320Q/E322Q (domain or fragment, human, UniProt Q13586 312-387, looked up)
chain: SRQKYAQQQLQQVREALRKAEKELESHSSWYAPEALQKWLQLTHEVEVQYYNIKKQNAEKQLLVAKEGAEKIKKKR
B2: STIM1 CC1_([TM-distal])-CC2 A380R (domain or fragment, human, UniProt Q13586 312-387, looked up)
chain: B1 chain with Q7E, Q8E, Q9E, Q11E, A69R
B3: STIM1 CC1_([TM-distal])-CC2 K382E/K384E/K385E/K386E (domain or fragment, human, UniProt Q13586 312-387, looked up)
chain: B1 chain with Q7E, Q8E, Q9E, Q11E, K71E, K73E, K74E, K75E
B4: STIM1 CC1_([TM-distal])-CC2 I383R (domain or fragment, human, UniProt Q13586 312-387, looked up)
chain: B1 chain with Q7E, Q8E, Q9E, Q11E, I72R

Legend:
[1] = biological target: B1; experiment: pull-down
[2] = biological target: STIM1 CC1_([TM-distal])-CC2 V324P (human, UniProt Q13586 312-387, V324P); experiment: pull-down
[3] = biological target: B2; experiment: pull-down
[4] = biological target: B4; experiment: pull-down
SEC-MALS = biological target: the molecule itself; experiment: SEC-MALS
[5] = biological target: STIM1 CC1_([TM-distal])-CC2 (residues 312-387) (human, UniProt Q13586 312-387); experiment: NMR titration

Sequence of STIM1 CC1_([TM-distal])-CC2 V324P (Q13586 312-387 V324P): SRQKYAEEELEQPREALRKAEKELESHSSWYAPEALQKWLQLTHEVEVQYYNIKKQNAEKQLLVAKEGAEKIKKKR

binding result [1]: binds
binding result [2]: binds
binding result [3]: binds
binding result [4]: binds
Binder: ELNELAEFARLQDQLDHRGDH (domain or fragment, human, UniProt Q96D31 272-292, looked up) [MBP-Orai1 C_(272–292)]

Binder: B1
binding result (SEC-MALS): binds

Binder: B2
binding result (SEC-MALS): binds

Binder: B3
binding result (SEC-MALS): binds

Binder: B4
binding result (SEC-MALS): binds

Kd [5]: 100 to 600 µM
Binder: ELNELAEFARLQDQLDHRGDH (peptide, UniProt Q96D31 272-292, looked up) [Orai1 C_(272–292)]

Reference: publication PMC3927877 (Nature Communications, 2013)
